{
  "source": "paper PMC6895265",
  "binders": {"B1": {"name": "12-mer TA-flanked, X=M (dsDNA)", "DNA 1": "ATACACGTGTAT", "DNA 2": "ATACACGTGTAT", "modifications": "5mC at C4 and C6 of both strands"}, "B2": {"name": "12-mer TA-flanked, X=H (dsDNA)", "DNA 1": "ATACACGTGTAT", "DNA 2": "ATACACGTGTAT", "modifications": "5hmC at C4 and C6 of both strands"}},
  "target": "TCF4 bHLH domain (Homo sapiens, UniProt P15884 565-624)",
  "sequence (P15884 565-624)": "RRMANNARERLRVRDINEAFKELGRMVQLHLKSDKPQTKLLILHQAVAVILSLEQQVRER",
  "experiment": "ITC",
  "data": [
    {"binder": "B1", "values": [
      {"measurement": "binding result", "result": "no binding"}
    ]},
    {"binder": "B2", "values": [
      {"measurement": "binding result", "result": "no binding"}
    ]}
  ]
}
